Experimental data from the supplement of paper PMC9732359.
± gives the uncertainty stated by the source.

Test: protein stability index of a GFP-peptide fusion (yeast GPS) (PSI 1-4); higher = more stable; sorted into four equal gates, so the index is relative within each strain
Conditions: san1∆
Outline: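 The protein stability index of a peptide was calculated by multiplying its read frequency in each gate by that gate's number and adding the products. The peptides were tiled 17-residue stretches of yeast proteins, fused downstream of GFP on a Cherry-expressing plasmid and carried in yeast as a pooled library. Mid-log cultures in leucine-free medium were sorted into four equal gates by GFP/Cherry ratio, and each gate's plasmids were PCR-amplified and Illumina-sequenced.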

Row | Sequence | protein stability index
1 | GIIITDQSNVQYYLSVL [BRR2] | 3.07 ± 0.11

Same assay, conditions: ubr1∆

Row | Sequence | protein stability index
2 | FEFQYLTIGVKFFMKHG [SRB5] | 1.18 ± 0.035
3 | FEGTDDNEEASVKLDLQ [BRN1] | 3.35 ± 0.098
4 | FEIDDEHRIRVFFDKRI [RPS6A] | 2.94 ± 0.16
5 | FEKDLMAYFDENLNRNW [BRN1] | 3.17 ± 0.057
6 | FELSFTGAPPYYYNTKI [YMR129W/POM152] | 3.21 ± 0.12
7 | FEQFEKFYEEKLWFQLS [RPN9] | 1.72 ± 0.13
8 | FERPAVKEEKEDMETQA [RPC53] | 3.46 ± 0.16
9 | FEVEMILMQQQMMARMA [SRP54] | 1.73 ± 0.27
10 | FFGPTYYQRLRHMVDDK [RPB2] | 1.36 ± 0.053
11 | FGATTNDDKKTEPDKPA [YJL041W/NSP1] | 2.65 ± 0.11
12 | FGELQFAFLNAMFFGNY [AAR2] | 3 ± 0.064
13 | FGNSLSNTVNANNYSSN [YDL088C/ASM4] | 3.18 ± 0.056
14 | FGNSSPQLTFTHVANFM [YML103C/NUP188] | 2.92 ± 0.052
15 | FGTGQSTFGFNNSAPNN [YJL041W/NSP1] | 3.3 ± 0.036
16 | FHAEPSGTFYRYNAKAI [PUP2] | 1.67 ± 0.077
17 | FHFRAPSRIFYKALRGM [RPL16A] | 2.43 ± 0.14
18 | FIGRLPIMLRSKNCYLS [RPB2] | 1.19 ± 0.054
19 | FISAARYKPKSHLWEID [RPC37] | 3.11 ± 0.069
20 | FIYGEDGMDAAHIEKQS [RPO21] | 3.36 ± 0.043
21 | FKERQMMVSYPKIDEDD [AAR2] | 3.35 ± 0.043
22 | FKKTLRSRISSPHGLIN [SRB4] | 2.15 ± 0.042
23 | FKQKLNELLKCKDDVQL [MTW1] | 3 ± 0.039
24 | FKSTESNISDEKSRISE [YMR129W/POM152] | 3.05 ± 0.17
25 | FKYRKARLEPGTAIGAI [RPO31] | 2.33 ± 0.057
26 | FLESSKEIDPSQTTQLA [FAS2] | 2.42 ± 0.14
27 | FLHESSFDSIDHSWFLL [CSI1] | 2.87 ± 0.044

Row | Sequence | protein stability index
28 | FLKKVMDTIQDKLINDV [ECM29] | 3.34 ± 0.15
29 | FLLLAVNKYGLRADKLY [ISW2] | 2.93 ± 0.059
30 | FLPRKRAASIRARVKAF [RPL3] | 1.17 ± 0.051
31 | FLQGESPFSITFSVYHE [YMR129W/POM152] | 2.36 ± 0.052
32 | FLQPLLLVGLIKTFYWL [NUT1] | 1.8 ± 0.051
33 | FLTPMDSIDLAPNTLTN [YML103C/NUP188] | 1.26 ± 0.082
34 | FLVRYACEPTAEKFVPI [SIR3] | 2.91 ± 0.1
35 | FLYVLIPAGIYWYWWKN [QCR8] | 1.35 ± 0.27
36 | FMDNSYDIDEIDHSDES [ESC2] | 2.82 ± 0.13
37 | FMLILALFVFYSPNTLG [COB] | 2.52 ± 0.053
38 | FMRNGLLEGLNEKIEKR [UBP6] | 3.55 ± 0.23
39 | FNATVDETKGFDDNDSG [MED2] | 3.29 ± 0.078
40 | FNDSQAIVCYILFELYK [SRP72] | 2.36 ± 0.053
41 | FNKEQLNKFKKAIFQFV [ECM29] | 1.15 ± 0.069
42 | FNKSAELSRIENEVENI [YCS4] | 3.39 ± 0.17
43 | FNTFWDEKGNEIKVGKQ [ARP9] | 2.52 ± 0.059
44 | FNTNSSFTPSTVPNINF [YOR098C/NUP1] | 2.77 ± 0.029
45 | FNYNIFMHDPSVFYNIA [SIR2] | 1.76 ± 0.048
46 | FPMKQGVLLPTRIKLLL [RPS6A] | 1.29 ± 0.038
47 | FPMPYENEEFITFLQTL [ECM29] | 2.39 ± 0.063
48 | FPRDGKAPEAEQVLSAA [RPL13B] | 3 ± 0.045
49 | FPSSETTSLNPIQSKVF [BRR2] | 2.33 ± 0.11
50 | FPTTSHESLVTTLLRKK [MED8] | 1.95 ± 0.12
51 | FQETLDSTVVYPLPKFP [MED8] | 3.15 ± 0.044
52 | FQFFPKELDALQEKEQL [ISW2] | 2.97 ± 0.06
53 | FQIEADFIGHNSNINTL [ASC1] | 2.68 ± 0.043

Row | Sequence | protein stability index
54 | FQYGSRLPTFLKHKSIC [RPP1] | 1.87 ± 0.063
55 | FQYVIDESSGTSRIDEE [SMC4] | 3.23 ± 0.13
56 | FRGIIRSQDVRSTDRDR [CSL4] | 2.9 ± 0.2
57 | FRGNISQPKIGYGSNKK [RPL32] | 2.89 ± 0.049
58 | FRKKRKFELGRQPANTK [RPS8A] | 3.16 ± 0.065
59 | FRNPTPLLSNYASKINR [RGR1] | 1.66 ± 0.048
60 | FRTDMLQVADKFFRVKY [SMC3] | 2.12 ± 0.051
61 | FSHLAGGKIINKLGNDP [BRR2] | 3.02 ± 0.077
62 | FSQKEMAFNLLGLLTPE [FAS2] | 2.42 ± 0.064
63 | FSWISVVNDLVGEKLVV [SIR3] | 2.84 ± 0.14
64 | FTIRGFKQKLNELLKCK [MTW1] | 3.17 ± 0.046
65 | FTNELKAELDRYKRENQ [SEM1] | 3.41 ± 0.24
66 | FVAATTNAGYTIELAGG [FAS1] | 2.68 ± 0.062
67 | FVCLSCSHIFTSDQKNK [RPB9] | 2.55 ± 0.066
68 | FVHYGEIKNDFIMVKGC [RPL3] | 2.38 ± 0.076
69 | FVRGDSKIFRFQNSKSA [RPL24A] | 2.43 ± 0.051
70 | FVSRPDRTMLAPMDFAI [FAS1] | 2.68 ± 0.11
71 | FVYNKVNETEAILYTKP [YGR119C/NUP57] | 2.97 ± 0.07
72 | FYLMVSSLSFGPENALN [YJL039C/NUP192] | 1.31 ± 0.051
73 | GAAANNNDQKRQQAYKT [YJL041W/NSP1] | 3.22 ± 0.066
74 | GAAFKVISNLVPKLESS [YJL039C/NUP192] | 2.18 ± 0.12
75 | GAALKDIEIVRVNKNAP [FAS2] | 3.31 ± 0.084
76 | GAIIGWTRGTGLMSANN [FAS2] | 2.78 ± 0.29
77 | GALVDRTQPWSIMPDLY [RPS0A] | 3.11 ± 0.032
78 | GASGEERLMSRPFGVAL [PUP2] | 3.13 ± 0.05
79 | GAVSLNPSITRLEEESS [RRP4] | 2.35 ± 0.08

Row | Sequence | protein stability index
80 | GCYFEEKRYDDKLLDFI [CSN12] | 3.04 ± 0.077
81 | GDKDTRADIVRNIILEA [ISW2] | 2.56 ± 0.11
82 | GDLLNAEVQSLFQDGSA [RRP4] | 2.37 ± 0.096
83 | GDMTNSDAQSNLGSNVR [REC8] | 3.25 ± 0.096
84 | GDNTSDVDMEDRNLTEF [RRI1] | 3.19 ± 0.058
85 | GDPFDYKAQADTFYMNV [RPB3] | 3.36 ± 0.083
86 | GELVLDIEVPDVNALKF [SNF12] | 3.15 ± 0.11
87 | GETRMKMLNEFVKKTSE [SMC2] | 3.26 ± 0.082
88 | GFDIQKSCEPVSISTSV [SIR4] | 1.56 ± 0.07
89 | GFGRKGKAKGDIPGVRF [RPS23A] | 3.22 ± 0.094
90 | GFSTGIGDTIADGPTMR [RPO21] | 2.99 ± 0.15
91 | GGAKSRGVRPYKHIDAS [RPS19A] | 2.98 ± 0.12
92 | GGDTCSSDGALCMDSSY [POP1] | 2.27 ± 0.036
93 | GGDWERRNRYKTYYGIH [RPN7] | 1.18 ± 0.044
94 | GGFTNLTSQAPQTTQMF [YDL088C/ASM4] | 3.08 ± 0.068
95 | GGGHVSQVYAIRQAIAK [RPS16A] | 2.62 ± 0.043
96 | GGIETILEHTLFKGTGF [PRP8] | 3.47 ± 0.13
97 | GGKIINKLGNDPSLNLK [BRR2] | 2.16 ± 0.057
98 | GGLRPFGVSFIYAGYDD [PRE9] | 2.27 ± 0.083
99 | GGLSGEESIKIYPLIKP [UBP6] | 2.16 ± 0.09
100 | GGTSDMNYLLDNKINEI [CSI1] | 3.25 ± 0.078
101 | GHDADDGYQLFHAEPSG [PUP2] | 3.1 ± 0.14
102 | GIIITDQSNVQYYLSVL [BRR2] | 3.01 ± 0.13
